Test [1] addresses plasma purified human VWF (human). The experiment in a line: SPR; Biacore 3000, 25 C; VWF immobilised by amine coupling (2100 RU); fH 5 to 320 nM in HBS with 50 uM ZnCl2, 30 uL/min; global fit to two-state model; apparent KD. For orientation: SPR reads the build-up and loss of mass on a sensor chip optically.
In test [2] the target is recombinant His-tagged VWF-A1 domain (amino acids Q1238-D1471) (human). The experiment in a line: SPR; Biacore 3000, 25 C; VWF-A1 immobilised (1500 RU); fH 40 to 640 nM, 20 uL/min; fitted to two-state model; apparent KD.
In test [3] the target is recombinant VWF-A2 as used in the ELISA and Biacore experiments (human) (UniProt P04275). The experiment in a line: SPR; Biacore 3000, 25 C; VWF-A2 (1000 RU) or VWF-A3 (800 RU) immobilised; fH 40 to 640 nM, 20 uL/min; for VWF-A2 responses at equilibrium fitted to a one-site binding isotherm.
In test [4] the target is T1, plasma purified human factor H (human, UniProt P08603 19-1231).
T1 construct: complement factor H, human, purified from plasma (150 kD, 20 SCRs); also the endogenous protein in normal serum; also called fH; complement factor H; source: bought: Complement Technology Inc., plasma purified; endogenous, normal human serum
In words: co-IP; plasma-purified fH (30 nM) incubated with His-tagged VWF-A1, -A2 (E. coli or HEK 293), -A3 or Myc-tagged VWF-BC (100 nM); precipitated with anti-fH antibody or IgG; blot anti-VWF. The note with it: both partners purified.

The target of test [5] is T2, truncated fH F2 with SCRs 1-10, amino acids M1-E625 (human, UniProt P08603 19-625).
T2 construct: signal peptide in the construct; complement factor H, human, SCRs 1-10, amino acids M1-E625, in pSecTag2B His tag vector; source: HEK 293, stably transfected, secreted into serum-free medium, purified (Ni-NTA)
In words: pull-down; GST-VWF-A2 (100 nM) incubated with recombinant F4, F3, F2 or F1 (30 nM each); glutathione agarose beads, overnight 4 C; blot polyclonal or monoclonal (90X) anti-fH. The settings on record: both partners purified.

In test [6] the target is T3, truncated fH F3 with SCRs 1-15, amino acids M1-G928 (human, UniProt P08603 19-928).
T3 construct: signal peptide in the construct; complement factor H, human, SCRs 1-15, amino acids M1-G928, in pSecTag2B His tag vector; source: HEK 293, stably transfected, secreted into serum-free medium, purified (Ni-NTA)
The description is as above. The settings on record: both partners purified.

For test [7], the target named is T4, recombinant full-length wild type human fH (F4 with SCRs 1-20, amino acids M1-R1231) (human, UniProt P08603 19-1231).
T4 construct: signal peptide in the construct; complement factor H, human, SCRs 1-20, amino acids M1-R1231, in pSecTag2B His tag vector; also called full-length recombinant fH; source: HEK 293, stably transfected, secreted into serum-free medium, purified (Ni-NTA)
The description is as above. The note with it: both partners purified.

T1 sequence (P08603 19-1231): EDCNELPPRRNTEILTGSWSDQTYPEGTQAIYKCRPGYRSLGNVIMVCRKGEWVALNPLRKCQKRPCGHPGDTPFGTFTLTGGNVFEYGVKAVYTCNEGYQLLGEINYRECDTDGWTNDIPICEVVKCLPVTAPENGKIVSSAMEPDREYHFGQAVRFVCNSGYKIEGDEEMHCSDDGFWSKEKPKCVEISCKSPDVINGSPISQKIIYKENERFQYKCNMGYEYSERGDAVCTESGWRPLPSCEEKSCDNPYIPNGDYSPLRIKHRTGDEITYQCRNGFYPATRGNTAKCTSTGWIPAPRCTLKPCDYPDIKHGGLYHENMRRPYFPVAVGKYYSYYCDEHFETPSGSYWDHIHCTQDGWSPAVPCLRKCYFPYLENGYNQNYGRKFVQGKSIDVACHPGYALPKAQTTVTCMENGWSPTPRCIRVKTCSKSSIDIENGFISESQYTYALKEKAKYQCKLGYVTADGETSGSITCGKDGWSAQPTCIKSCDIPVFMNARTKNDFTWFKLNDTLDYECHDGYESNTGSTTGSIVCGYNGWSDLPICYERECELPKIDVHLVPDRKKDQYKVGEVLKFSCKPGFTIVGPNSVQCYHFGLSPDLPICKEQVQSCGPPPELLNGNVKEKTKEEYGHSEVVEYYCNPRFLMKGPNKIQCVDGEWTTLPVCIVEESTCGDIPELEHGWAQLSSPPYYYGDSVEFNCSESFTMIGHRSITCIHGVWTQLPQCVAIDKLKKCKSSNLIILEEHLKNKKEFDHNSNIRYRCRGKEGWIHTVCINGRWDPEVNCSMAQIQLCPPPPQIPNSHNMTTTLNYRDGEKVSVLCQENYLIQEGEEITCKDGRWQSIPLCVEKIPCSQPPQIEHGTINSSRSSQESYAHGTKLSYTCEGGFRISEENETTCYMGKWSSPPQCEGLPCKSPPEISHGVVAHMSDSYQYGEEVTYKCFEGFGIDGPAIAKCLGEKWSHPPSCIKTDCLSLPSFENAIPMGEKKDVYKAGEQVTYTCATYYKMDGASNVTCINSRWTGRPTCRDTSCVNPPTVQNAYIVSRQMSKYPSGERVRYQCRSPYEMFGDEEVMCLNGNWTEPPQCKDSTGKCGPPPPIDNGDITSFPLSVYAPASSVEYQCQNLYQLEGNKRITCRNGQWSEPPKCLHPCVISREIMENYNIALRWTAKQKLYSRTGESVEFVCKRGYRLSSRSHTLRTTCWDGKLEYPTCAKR
T4 sequence (P08603 19-1231): as above
T2 sequence (P08603 19-625): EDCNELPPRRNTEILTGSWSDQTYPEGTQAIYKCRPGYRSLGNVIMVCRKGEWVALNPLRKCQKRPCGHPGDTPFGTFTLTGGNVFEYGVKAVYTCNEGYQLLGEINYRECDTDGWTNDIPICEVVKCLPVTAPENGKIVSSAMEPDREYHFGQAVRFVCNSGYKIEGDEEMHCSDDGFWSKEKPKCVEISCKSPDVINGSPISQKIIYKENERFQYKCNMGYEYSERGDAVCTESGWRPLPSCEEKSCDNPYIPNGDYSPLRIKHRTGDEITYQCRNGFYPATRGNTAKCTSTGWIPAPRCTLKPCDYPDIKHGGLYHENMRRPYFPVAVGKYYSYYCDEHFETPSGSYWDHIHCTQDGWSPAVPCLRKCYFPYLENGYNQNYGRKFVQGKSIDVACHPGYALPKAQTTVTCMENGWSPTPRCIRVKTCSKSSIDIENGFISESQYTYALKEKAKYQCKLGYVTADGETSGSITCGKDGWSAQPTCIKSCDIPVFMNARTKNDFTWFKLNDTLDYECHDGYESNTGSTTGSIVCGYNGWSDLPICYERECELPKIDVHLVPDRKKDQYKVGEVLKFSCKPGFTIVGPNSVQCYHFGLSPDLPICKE
T3 sequence (P08603 19-928): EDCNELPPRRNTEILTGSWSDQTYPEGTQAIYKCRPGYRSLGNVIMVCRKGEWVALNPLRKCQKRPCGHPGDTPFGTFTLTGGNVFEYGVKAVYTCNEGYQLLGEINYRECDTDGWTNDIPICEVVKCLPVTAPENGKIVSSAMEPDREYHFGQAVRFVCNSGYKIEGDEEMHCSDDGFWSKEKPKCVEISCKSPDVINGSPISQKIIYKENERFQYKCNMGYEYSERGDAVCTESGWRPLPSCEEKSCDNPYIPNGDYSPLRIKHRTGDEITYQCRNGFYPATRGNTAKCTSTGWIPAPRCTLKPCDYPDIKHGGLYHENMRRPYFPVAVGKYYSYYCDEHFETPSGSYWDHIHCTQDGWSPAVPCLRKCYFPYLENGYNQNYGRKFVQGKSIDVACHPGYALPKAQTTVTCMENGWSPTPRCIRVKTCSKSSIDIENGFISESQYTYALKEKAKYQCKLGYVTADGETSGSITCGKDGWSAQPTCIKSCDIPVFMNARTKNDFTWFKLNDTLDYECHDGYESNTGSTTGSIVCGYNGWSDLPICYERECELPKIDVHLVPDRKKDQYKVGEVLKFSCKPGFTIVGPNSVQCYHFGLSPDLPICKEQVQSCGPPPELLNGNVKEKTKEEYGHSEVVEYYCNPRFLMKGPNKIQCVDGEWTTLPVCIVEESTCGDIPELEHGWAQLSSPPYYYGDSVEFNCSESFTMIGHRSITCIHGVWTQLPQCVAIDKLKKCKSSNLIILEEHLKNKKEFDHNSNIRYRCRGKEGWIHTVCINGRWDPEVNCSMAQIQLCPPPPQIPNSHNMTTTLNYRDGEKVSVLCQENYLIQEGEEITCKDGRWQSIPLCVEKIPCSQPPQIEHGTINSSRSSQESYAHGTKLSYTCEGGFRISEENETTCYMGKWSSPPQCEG

Turning to “plasma purified human factor H (from UniProt P08603 19-1231) (natural protein)”, in test [1], the Kd is 32.9 nM; the ka1 (binding step, two-state model) stood at 60000 M⁻¹ s⁻¹; the ka2 (forward rate, conformational change step) stood at 0.007 s⁻¹; the kd1 (binding step, two-state model) was found to be 0.0158 s⁻¹. Moreover, the kd2 (backward rate, conformational change step) in test [1] is 0.0009 s⁻¹. Besides, in test [2], the Kd came out at 161 nM; the ka1 (binding step, two-state model) was found to be 53600 M⁻¹ s⁻¹; the ka2 (forward rate, conformational change step) was determined as 0.00797 s⁻¹; the kd1 (binding step, two-state model) stood at 0.0358 s⁻¹. Further, the kd2 (backward rate, conformational change step) in test [2] came out at 0.00254 s⁻¹. For the same molecule, in test [3], the Kd amounted to 147 nM.

B1: recombinant His-tagged VWF-A2 (amino acids G1481-R1668), purified from transfected E. coli (domain or fragment)
chain: GLLGVSTLGPKRNSMVLDVAFVLEGSDKIGEADFNRSKEFMEEVIQRMDVGQDSIHVTVLQYSYMVTVEYPFSEAQSKGDILQRVREIRYQGGNRTNTGLALRYLSDHSFLVSQGDREQAPNLVYMVTGNPASDEIKRLPGDIQVVPIGVGPNANVQELERIGWPNAPILIQDFETLPREAPDLVLQR
notes: von Willebrand factor A2 domain, amino acids G1481-R1668; source: E. coli, purified (Ni-NTA)
For B1, the binding result in test [4] was “binds”.

B2: recombinant His-tagged VWF-A2 (amino acids P1480-G1672), purified from transfected HEK 293 cells (domain or fragment)
chain: PGLLGVSTLGPKRNSMVLDVAFVLEGSDKIGEADFNRSKEFMEEVIQRMDVGQDSIHVTVLQYSYMVTVEYPFSEAQSKGDILQRVREIRYQGGNRTNTGLALRYLSDHSFLVSQGDREQAPNLVYMVTGNPASDEIKRLPGDIQVVPIGVGPNANVQELERIGWPNAPILIQDFETLPREAPDLVLQRCCSG
notes: von Willebrand factor A2 domain, amino acids P1480-G1672, in pSecTag2B His-tag vector; also called His-tagged A2; source: HEK 293, purified (Ni-NTA)
Take B2: the binding result in test [4] is given as “binds”.

B3: GST-VWF-A2 fusion protein (amino acids P1480-G1672) (domain or fragment)
chain: PGLLGVSTLGPKRNSMVLDVAFVLEGSDKIGEADFNRSKEFMEEVIQRMDVGQDSIHVTVLQYSYMVTVEYPFSEAQSKGDILQRVREIRYQGGNRTNTGLALRYLSDHSFLVSQGDREQAPNLVYMVTGNPASDEIKRLPGDIQVVPIGVGPNANVQELERIGWPNAPILIQDFETLPREAPDLVLQRCCSG
notes: von Willebrand factor A2 domain, amino acids P1480-G1672, in pGEX-2T GST vector; also called GST-A2; recombinant VWF-A2; source: E. coli, purified (glutathione agarose beads)
For the molecule B3, the binding result in test [5], in test [6] and in test [7] was “binds” throughout.

For the origin of these results see publication PMC3753316, “The Interaction between Factor H and Von Willebrand Factor” (PLoS ONE, 2013).
